Source: patent US20230072897A1, “ANTI-B7-H4 ANTIBODY-DRUG CONJUGATE AND MEDICINAL USE THEREOF” (SHANGHAI HANSOH BIOMEDICAL CO., LTD., priority 2019, published 2023)

Target: human B7-H4 on MX-1 cells (human) (UniProt Q7Z7D3)
Test: cell-based or functional assay

UniProt Q7Z7D3, sequence (Q7Z7D3 25-282): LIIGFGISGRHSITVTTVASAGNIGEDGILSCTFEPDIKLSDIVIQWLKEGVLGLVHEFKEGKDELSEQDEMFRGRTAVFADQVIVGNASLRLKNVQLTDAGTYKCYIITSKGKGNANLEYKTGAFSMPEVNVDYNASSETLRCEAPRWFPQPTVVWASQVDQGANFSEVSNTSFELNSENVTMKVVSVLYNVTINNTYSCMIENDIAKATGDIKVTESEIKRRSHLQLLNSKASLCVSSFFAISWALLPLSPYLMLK

Substance: IgG control (antibody)
- Humanized antibody-mediated endocytosis efficiency of B7-H4 protein, 0 hour (%): 0%
- Humanized antibody-mediated endocytosis efficiency of B7-H4 protein, 0.5 hour (%): 0.1%
- Humanized antibody-mediated endocytosis efficiency of B7-H4 protein, 2 hours (%): 0.9%
